Assay results reported in patent US8114412B2, “T. cruzi-derived neurotrophic agents and methods of use therefor” (priority 1999, dated 2012).
Residue numbers refer to the chain shown, from its start. “Also recorded” adds a separate entry of the source.

Tests used:
PC12 cells [1] = assay: Neurite outgrowth assay in PC12 cells; format: cell-based, rat; settings: neurite outgrowth assay, concentration not given
Text: (§1) PC12 cells were obtained from ATCC (Manassas, Va. (Accession No. CRL-1721)) and cultured on collagen-coated dishes in RPMI 1640 supplemented with 10% horse serum and 5% fetal bovine serum (Greene, L. A. and Tishler, A. S., Proc. Natl. Acad. Sci. USA, 73: 2424-2428 (1976)). For differentiation and survival experiments, cells were washed three times in serum-free RPMI/0.2% BSA, plated in the same medium in collagen-coated plastic dishes at 2×10^5/ml, without and with growth factors, TS, recombinant proteins, synthetic peptides, for the time and concentrations indicated in the Figures.
(§2) 96-well microtiter plates were coated overnight at 4° C. with the TS or peptides or fragments thereof, or with control proteins laminin (Ln) or bovine serum albumin (BSA) at 500 μg/ml. After removing the compounds, the plates were further incubated with 1% BSA for 1 hour at room temperature and immediately used as substratum for PC12 or N18 (Prasad, K. N., Biol Rev Camb Philos Soc, 66:431-451 (1991)) cells in serum-free RPMI/0.2% BSA. Neurite outgrowth was measured using a phase-contrast microscope 17 hours later.

N18 cells = assay: Neurite outgrowth assay in N18 cells; format: cell-based; settings: immobilized proteins coated at 500 μg/ml, 17 hours (FIG. 3A)
Procedure: FIG. 3A is a graph showing that neurite outgrowth in N18 cells is induced by immobilized laminin (Ln), immobilized TS and immobilized fragments of TS. Proteins were immobilized by incubating plates which contained wells filled with solutions of the proteins (protein concentration was 500 μg/ml) at 4° C. overnight. The protein solutions were removed and the plates were further incubated with 1% BSA at room temperature for one hour. N18 cells were cultured in the coated wells in serum-free RPMI-1640/0.2% BSA for 17 hours, and neurite outgrowth was measured by phase-contrast microscopy. […] Ln, laminin; TS, purified T. cruzi trans-sialidase; 7F, recombinant TS from clone 7F; 19Y, recombinant TS from clone 19Y; TS-F, recombinant fragment consisting of amino acid residues 33-666 of TS (SEQ ID NO:2); TS-CC-47, recombinant fragment consisting of amino acid residues 79-478 of TS (SEQ ID NO:2); TS-Cat-47, recombinant fragment consisting of amino acid residues 79-415 of TS (SEQ ID NO:2); BSA, bovine serum albumin.
as §2

PC12 cells [2] = assay: Trophic factor withdrawal-induced apoptosis of PC12 cells (DAPI/TUNEL); format: cell-based, rat; settings: serum-free RPMI-1640/0.2% BSA, 17 hours, DAPI or TUNEL
Text: as §1
Cell staining with 4,6-diamino-2-phenylindole (DAPI). Cells were fixed with 4% formaldehyde in PBS for 5 minutes, washed with PBS, stained with 10 μg/ml DAPI (Sigma) for 2 minutes, washed with PBS, and visualized under UV light using a fluorescent microscope. About 300-400 cells were examined under the microscope to determine the percentage of apoptotic cells.
Cell DNA nick end labeling (TUNEL) (Gavrieli, Y., et al., J. Cell. Biol. 119: 493-501 (1992)) assay was performed using a kit purchased from Boehringer Mannheim as described by the manufacturer.
Protection against apoptosis of PC12 cells in serum-free medium containing a test agent (agent N)(e.g., protection induced by TS, TS fragments, NGF or other growth factors), was calculated by the formula: 100%-[(apoptosis(%) of cells kept in RPMI containing test agent N÷apoptosis (%) of cells kept in RPMI)×100%]. Testing the effect of wortmannin (Sigma) and LY294002 (Sigma) in inhibiting the neuroprotection of TS was performed following the protocol described by others (Yao and Cooper, Science, 267:2003-2006 (1995); D'Mello et al., J. Neurosci 17:1548-1560 (1997)). In brief, PC12 cells were switched from growth medium to RPMI without and with TS or various other growth factors. After 24 hr, wortmannin and LY294002 were added to the cultures. After another 24 hrs, cells were examined for apoptosis by the DAPI assay, as above.

Trans-sialidase assay = format: biochemical
Procedure: The trans-sialidase assay was performed as described (Scudder et al., J. Biol. Chem. 268:9886-9891 (1993)) with slight modifications. Various amounts of intact enzyme or enzyme fragments were added to 50 mM PBS, Ph 7.2, containing 15% fetal calf serum and […] of [^14C]N-acetyllactosamine (4×10^5 dpm), 50 μg BSA and 0.02% NaN3 in a volume of 60 μl. After incubation for a predetermined amount of time at room temperature, the reaction mixture was diluted to 1.0 ml with distilled water and applied to a column containing 1.0 ml Q-Sepharose equilibrated with water. Sialylated product was eluted with 1 M NaCi and quantified by scintillation counting.
TS enzymatic activity was measured by the sialylation of the acceptor ^14C-labeled N-acetyllactosamine on anion exchange resins (Scudder, P. et. al., J. Biol. Chem. 268:9886-9891 (1993)). Recombinant TSA-1, was expressed on insect sf9 cells and purified from serum-free medium by ion exchange chromatography (monoQ) and preparative SDS-PAGE (Wrightsman, R. A. et al., J. Immunol., 153:3148-3154 (1994).

[3] = test system: peripheral blood mononuclear cells (PBMC); assay: IL-6 secretion by PBMC (ELISA); format: cell-based, human; parameters: IL-6 secretion by PBMC: dose or concentration left out as unconfirmed; settings: 24 hrs culture
Procedure: (§3) Primary cultures of human intestinal microvascular endothelial cells (HIMEC) isolated from normal jejunal mucosa/submucosal tissue were prepared as described (Strong et al., Gastroenterology 114: 1244-1256 (1998)). The HIMEC were cultured in fibronectin-coated plasticware in MCDB medium (Sigma) supplemented with 20% FBS, 90 μg/ml heparin and 50 μg/ml endothelial cell growth factor (Sigma). T-24 cells (ATCC Accession No. HTB-4) were cultured in M199 medium supplemented with 10% FBS. PBMC were purified by Ficoll-Paque gradient as described (Current Protocols in Immunology, pp 7.1.1-7.1.2). Vero cells (ATCC Accession No. CCL-81) were grown in RPMI medium with 5% Nu serum and infected with the Silvio X-10/4 of T. cruzi as described previously (Chuenkova et al., J. Exp. Med. 181: 1693-1703, (1995)).
(§4) Endothelial cells and T-24 cells were plated on 24-well plates at a density of 1×10^3 cells/well, while peripheral blood mononuclear cells (PBMC) were plated in the similar wells at 1×10^6/well. Triplicat cultures of cells were incubated test agents for a predetermined amount of time. […] Cytokines and chemokines released in the culture supernatants were measured by ELISA assay following the instructions of the manufacturer (Endogen). The cytokines tested were IL-1β, IL-4, IL-8, IL-10, IL-12, IFN-γ, TNF-α, and the chemokines RANTES and MCP-1. Negative controls were cells incubated in medium containing polymixin B at 10 μg/ml, and positive controls were cells incubated with bacterial LPS at the low ng/ml range (for PBMC or HIMEC) or in the μg/ml range for carcinoma T-24 cells. In some experiments, IL-1β, or TNFα were used as positive control for cytokine release.
TR peptides (Table 2) were synthesized at the Tufts Synthesis Facility (Boston, Mass.). Each peptide was purified by HPLC, and the number of amino acids and molecular weight of each peptide verified by mass spectrometry. Peptides were dissolved in growth medium (10% FCS in RPMI) and added at various concentrations to 1×10^6 PBMC/well in 24-well plates. After 24 hrs, IL-6 was assayed by ELISA in the conditioned supernatants.

[4] = test system: human bladder carcinoma T-24 cell line; assay: IL-6 secretion by T-24 carcinoma cells (ELISA); format: cell-based; settings: 24 hours culture
Procedure: as §3, §4

B1: TS-Cat-47: recombinant fragment consisting of amino acid residues 79-415 of TS (SEQ ID NO:2) (protein, listed as Trypanosoma cruzi)
chain: MVAIADARYDTSNDNSLIDTVAKYSVDDGETWETQIAIKNSRVSSVSRVVDPTVIVKGNKLYVLVGSYYSSRSYWSSHGDARDWDILLAVGEVTKSTAGGKITASIKWGSPVSLKKFFPAEMEGMHTNQFLGGAGVAIVASNGNLVYPVQVTNKKKQVFSKIFYSEDDGKTWKFGKGRSDFGCSEPVALEWEGKLIINTRVDWKRRLVYESSDMEKPWVEAVGTVSRVWGPSPKSNQPGSQSSFTAVTIEGMRVMLFTHPLNFKGRWLRDRLNLWLTDNQRIYNVGQVSIGDENSAYSSVLYKDDKLYCLHEINTDEVYSLVFARLVGELRIIKSVL
For B1, the “neurite outgrowth in PC12 cells” value (PC12 cells [1]) was “did not promote neurite outgrowth”, the “neurite outgrowth in N18 cells” value (N18 cells) was “inactive in stimulating neurite outgrowth” and the “protection of PC12 cells from apoptosis induced by trophic factor withdrawal” value (shortened to “protection of PC12 cells”) (PC12 cells [2]) was “promoted the survival of the PC12 cells”.

B2: TS-F-47: recombinant TS fragment, amino acid residues 79-666 of SEQ ID NO:34 (protein, listed as Trypanosoma cruzi)
chain: GDARDWDILLAVGEVTKSTAGGKITASIKWGSPVSLKKFFPAEMEGMHTNQFLGGAGVAIVASNGNLVYPVQVTNKRKQVFSKIFYSEDDGKTWKFGKGRSDFGCSEPVALEWEGKLIINTRVDWKRRLVYESSDMEKPWVEAVGTVSRVWGPSPKSNQPGSQTSFTAVTIEGMRVMLFTHPLNFKGRCVRDRLNLWLTDNQRIYNVGQVSIGDENSAYSSVLYKDDKLYCLHEINTDEVYSLVFARLVGELRIIKSVLRSWKNWTATCPAFAPLLIQPLRRQRVVVVPLSPRLVLLAFCRQRLPKRMGGSYRCVNASTANAERVRNGLKFAGVGGGALWPVSQQGQNQRYRFANHAFTLVASVTIHEAPRAASPLLGASLDSSGGKKLLGLSYDEKHQWQPIYGSTPVTPTGSWETGKRYHLVLTMANKIGSVYIDGELLEGSGQTVVPDGRTPDISHFYVGGYKRSDMPTISHVTVNNVLLYNRRQLNTEEIRTLFLSQDLIGTEAHMDSSSDSSAHSTPSTPADSSAHSTPSTPVDSSAHSTPSTPADSSAHGTPSTPVDSSAHGTPSTPADSSAHGTPSTPVDS
For B2, the trans-sialidase enzymatic activity (Trans-sialidase assay) was “enzymatically inactive”, the “neurite outgrowth in N18 cells” value (N18 cells) was “as effective as the native enzyme in stimulating neurite outgrowth; also recorded: active” and the “protection of PC12 cells” value (PC12 cells [2]) was “active”.

B3: TS-H32 (protein, listed as Trypanosoma cruzi)
chain: KKKQVFSKIFYSEDDGKTWKFGEGRSAFGCSEAVALEWEGKLIINTRVDYRRRLVYESSDMGNTWLEAVGTLSRVWGPSPKSNQPGSQSSFTAVTIEGMRVMLFTHPLNFKGRWLRDRLNLWLTDNQRIYNVGQVSIGDENSAHSSVLYKDDKLYCLHEINSNEVYSLVFARLVGELRIIKSVLQSWKNWDSHLSSICTP
For B3, the “IL-6 secretion by PBMC” value [3] was “stimulating IL-6 secretion”, the “IL-6 secretion by T-24 cells” value [4] was “stimulating IL-6 secretion” and the trans-sialidase enzymatic activity (Trans-sialidase assay) was “enzymatically-inactive”.

B4: TS-154: recombinant catalytically active trans-sialidase construct from clone 154 with 5 tandem repeat units (protein, listed as Trypanosoma cruzi)
chain: B3 chain with D15E, A27D, A33P, T64S, L66V, H144Y
With B4 the “IL-6 secretion by PBMC” value [3] was “as powerful as enzymatically-inactive TS-H32 in stimulating IL-6 secretion”, the “IL-6 secretion by T-24 cells” value [4] was “as powerful as enzymatically-inactive TS-H32 in stimulating IL-6 secretion” and the trans-sialidase enzymatic activity (Trans-sialidase assay) was “enzymatically-active”.

B5: cruzipain: T. cruzi protease (protein, UniProt P25779 123-467, looked up)
Cruzipain: APAAVDWRARGAVTAVKDQGQCGSCWAFSAIGNVECQWFLAGHPLTNLSEQMLVSCDKTDSGCSGGLMNNAFEWIVQENNGAVYTEDSYPYASGEGISPPCTTSGHTVGATITGHVELPQDEAQIAAWLAVNGPVAVAVDASSWMTYTGGVMTSCVSEQLDHGVLLVGYNDSAAVPYWIIKNSWTTQWGEEGYIRIAKGSNQCLVKEEASSAVVGGPGPTPEPTTTTTTSAPGPSPSYFVQMSCTDAACIVGCENVTLPTGQCLLTTSGVSAIVTCGAETLTEEVFLTSTHCSGPSVRSSVPLNKCNRLLRGSVEFFCGSSSSGRLADVDRQRRHQPYHSRHRRL
With B5 the “neurite outgrowth in PC12 cells” value (PC12 cells [1]) was “did not induce neurite extension”.

B6: TS-CC-47: recombinant fragment consisting of amino acid residues 79-478 of TS (SEQ ID NO:2) (protein, listed as Trypanosoma cruzi)
chain: MVAIADARYDTSNDNSLIDTVAKYSVDDGETWETQIAIKNSRVSSVSRVVDPTVIVKGNKLYVLVGSYYSSRSYWSSHGDARDWDILLAVGEVTKSTAGGKITASIKWGSPVSLKKFFPAEMEGMHTNQFLGGAGVAIVASNGNLVYPVQVTNKKKQVFSKIFYSEDDGKTWKFGKGRSDFGCSEPVALEWEGKLIINTRVDWKRRLVYESSDMEKPWVEAVGTVSRVWGPSPKSNQPGSQSSFTAVTIEGMRVMLFTHPLNFKGRWLRDRLNLWLTDNQRIYNVGQVSIGDENSAYSSVLYKDDKLYCLHEINTDEVYSLVFARLVGELRIIKSVLRSWKNWDSHLSSICTPADPAASSSESGCGPAVTTVGLVGFLSGNASQNVWEDAYRCVNASTAN
With B6 the “neurite outgrowth in N18 cells” value (N18 cells) was “did not substantially reduce neurite outgrowth; also recorded: active” and the “protection of PC12 cells” value (PC12 cells [2]) was “active”.
